The test addresses GST-tagged Nedd4-2, full length (mouse). Put plainly: pull-down.

GST-tagged Nedd4-2, full length (mouse), sequence (Q8CFI0 whole entry): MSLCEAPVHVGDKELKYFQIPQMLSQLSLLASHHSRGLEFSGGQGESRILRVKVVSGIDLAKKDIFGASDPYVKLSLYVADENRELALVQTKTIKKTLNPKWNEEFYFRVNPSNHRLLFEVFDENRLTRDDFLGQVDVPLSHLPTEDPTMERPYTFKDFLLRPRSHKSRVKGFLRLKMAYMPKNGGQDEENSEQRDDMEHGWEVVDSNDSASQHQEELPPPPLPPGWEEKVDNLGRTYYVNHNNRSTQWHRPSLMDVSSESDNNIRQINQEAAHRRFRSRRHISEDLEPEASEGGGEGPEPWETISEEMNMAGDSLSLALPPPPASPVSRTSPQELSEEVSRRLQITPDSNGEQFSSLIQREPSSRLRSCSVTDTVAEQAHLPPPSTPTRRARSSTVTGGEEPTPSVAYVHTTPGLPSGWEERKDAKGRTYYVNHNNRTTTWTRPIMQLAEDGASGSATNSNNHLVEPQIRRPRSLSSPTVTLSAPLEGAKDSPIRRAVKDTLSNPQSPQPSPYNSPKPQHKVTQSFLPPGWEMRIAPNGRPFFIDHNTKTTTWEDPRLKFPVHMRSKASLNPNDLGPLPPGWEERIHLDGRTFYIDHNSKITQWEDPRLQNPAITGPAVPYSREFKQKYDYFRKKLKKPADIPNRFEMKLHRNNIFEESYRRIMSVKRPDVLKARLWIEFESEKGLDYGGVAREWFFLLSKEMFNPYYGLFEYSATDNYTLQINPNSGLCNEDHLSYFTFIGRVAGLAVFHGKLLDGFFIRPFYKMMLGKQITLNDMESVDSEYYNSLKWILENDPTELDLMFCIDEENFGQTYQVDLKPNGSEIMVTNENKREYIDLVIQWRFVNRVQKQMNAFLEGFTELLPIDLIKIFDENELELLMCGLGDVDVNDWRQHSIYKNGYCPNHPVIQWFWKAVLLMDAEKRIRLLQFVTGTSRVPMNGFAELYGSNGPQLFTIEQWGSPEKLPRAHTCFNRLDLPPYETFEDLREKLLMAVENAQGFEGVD

“HA-tagged Connexin43 (gap junction alpha 1 protein) (from UniProt P23242 1-382) (natural protein)” displayed a fold bound against GST-N4-1 of 2 fold.

B1: HA-tagged Kir4.1 (inwardly rectifying K+ channel 4.1) (natural protein)
chain: MTSVAKVYYSQTTQTESRPLVAPGIRRRRVLTKDGRSNVRMEHIADKRFLYLKDLWTTFIDMQWRYKLLLFSATFAGTWFLFGVVWYLVAVAHGDLLELGPPANHTPCVVQVHTLTGAFLFSLESQTTIGYGFRYISEECPLAIVLLIAQLVLTTILEIFITGTFLAKIARPKKRAETIRFSQHAVVASHNGKPCLMIRVANMRKSLLIGCQVTGKLLQTHQTKEGENIRLNQVNVTFQVDTASDSPFLILPLTFYHVVDETSPLKDLPLRSGEGDFELVLILSGTVESTSATCQVRTSYLPEEILWGYEFTPAISLSASGKYIADFSLFDQVVKVASPSGLRDSTVRYGDPEKLKLEESLREQAEKEGSALSVRISNV
B1: the fold bound against GST-N4-1 is 2 fold.

The values are drawn from paper doi:10.1101/683441.
